# According to paper PMC11101452, “Structures of the mumps virus polymerase complex via cryo-electron microscopy” (Nature Communications, 2024):
# Target: the molecule itself
# Assay: cryo-EM structure; L–P complex co-expressed in Sf9 and co-purified by the Strep tag of L; 2.0 μM; annealed and unannealed samples combined; 150 mM NaCl, 20 mM Tris-HCl, 6 mM MgCl2, 1 mM TCEP, pH 8.0; two conformations (L_(integral)–P, L_(body)–P)
protein,measurement,value
"mumps virus (strain Jeryl-Lynn) phosphoprotein (P) (natural protein, Phosphoprotein (P) of mumps virus strain Jeryl-Lynn, GenBank AAF70389.1; domains NTD, OD, Linker2, CTD (with XD); Four P molecules (P1-P4) stand in the L–P complex; only POD, Linker2 and part of PCTD are resolved; also called MuV P; P1; not shown: Flag, C-terminal, kept) MDQFIKQDETGDLIETGMNVANHFLSTPIQGTNSLSKASILPGVAPVLIGNPEQKNIQHPTASHQGSKTKGRGSGVRSIIVSPSEAGNGGTQIPEPLFAQTGQGGIVTTVYQDPTIQPTGSYRSVELAKIGKERMINRFVEKPRTSTPVTEFKRGGPGAAAQGQTIQEEGIDGNGASAGSKERSGSLSGATLYAHLSLPQQDSTPANVGIAPQSAISANEIMDLLRGMDARLQHLEQKVDKVLAQGSMVTQIKNELSTVKTTLATIEGMMATVKIMDPGNPTGVPVDELRRSFSDHVTIVSGPGDVSFSSSEKPTLYLDELARPVSKPRPAKQTKSQPVKDLAGQKVMITKMITDCVANPQMKQAFEQRLAKASTEDALNDIKRDIIRSAI",stoichiometry N,4
